{"source": "patent US7838495B2", "about": "“Compositions and methods of use of EPB1, and ErbB3 binding protein” (University of Maryland, Baltimore, priority 2007, dated 2010)", "molecules": {"B1": {"name": "EBP1: ErbB3 binding protein (SEQ ID NO: 2), AR corepressor, here ectopically expressed in cancer cells by stable transfection of an expression plasmid (protein, listed as Homo sapiens)", "chain": "MSGEDEQQEQTIAEDLVVTKYKMGGDIANRVLRSLVEASSSGVSVLSLCEKGDAMIMEETGKIFKKEKEMKKGIAFPTSISVNNCVCHFSPLKSDQDYILKEGDLVKIDLGVHVDGFIANVAHTFVVDVAQGTQVTGRKADVIKAAHLCAEAALRLVKPGNQNTQVTEAWNKVAHSFNCTPIEGMLSHQLKQHVIDGEKTIIQNPTDQQKKDHEKAEFEVHEVYAVDVLVSSGEGKAKDAGQRTTIYKRDPSKQYGLKMKTSRAFFSEVERRFDAMPFTLRAFEDEKKARMGVVECAKHELLQPFNVLYEKEGEFVAQFKFTVLLMPNGPMRITSGPFEPDLYKSEMEVQDAELKALLQSSASRKTQKKKKKKASKTAENATSGETLEENEAGD", "modifications": "FLAG tag"}}, "format_in_all_cases": "cell-based, human", "key": {"AU565 cells": {"system": "AU565 cells", "experiment": "Western blot of ErbB2 in AU565 EBP1 transfectants", "description": "(§1) FIG. 10A-C. Effect of ectopic expression of EBP1 on ErbB3 or ErbB2 protein levels. (A and B) Lysates of logarithmically growing MCF-7 vector control cells (CMV) or EBP1 transfected cells (Ebp1) or (C) AU565 cells were blotted with antibodies for ErbB3 or ErbB2 and actin as indicated. Data are representative of three experiments.\n(§2) 2.5. Western blot analysis. Total cell extracts were prepared by direct lysis of cells with lysis buffer [50 mM Tris-HCl (pH 7.4), 1 mM EDTA, 250 mM NaCl, 1% Triton X-100, 0.5 mM DTT, and 1× Complete™ protease inhibitor]. Protein concentrations were measured using a detergent compatible kit (Bio-Rad). Proteins (30 lg per well) were resolved by SDS-PAGE, transferred to PVDF membranes, and immunoblotted as described. […] Images were quantified using IMAGE-J software (NIH). […] Relative cell numbers were determined 4 days later using a Promega Proliferation Reagent as per manufacturer's instructions with absorbance being read at 490 nm using a Dynex plate reader. […] Data were analyzed using a two-tailed Students t-test and a p <0.05 was deemed statistically significant. […]"}, "LNCaP cells": {"system": "LNCaP cells", "experiment": "Growth response of LNCaP vector controls and EBP1 transfectants to DHT and bicalutamide", "settings": "LNCaP EBP1 transfectants (vector controls approximately 70%)", "description": "Cell Growth Assays: To measure growth in complete media, cells (2×10^4) were seeded in triplicate in individual wells of 12-well tissue culture plates in RPMI-1640 with 10% FBS and cultured for the indicated number of days. Cells were trypsinized, stained with Trypan Blue (0.4%), and counted in a hemacytometer. For soft agar growth assays, increasing concentrations of cells (as indicated) were plated in 35 mm Petri dishes in complete media and 0.3% Difco Bacto Agar over an 0.5% agar layer. Colonies were counted after 10 days of incubation. For studies assessing the effect of dihydrotestosterone (DHT) on cell growth, cells (2×10^4) were plated in 12-well plates in complete media. After a 24-hour attachment period, the medium was replaced with steroid-free medium [phenol red-free RPMI 1640 and 5% charcoal-stripped FBS (Sigma)] for 48 hours. The final concentration of testosterone in the steroid-reduced media was less than 5 pM. After 48 hours of steroid depletion, cells were re-fed with fresh steroid-reduced medium with or without the indicated concentrations of DHT and/or bicalutamide (10 μM), and total cell numbers were assessed 7 days later."}, "MCF-7 cells": {"system": "MCF-7 cells", "experiment": "Western blot of ErbB2 and ErbB3 in MCF-7 EBP1 transfectants", "settings": "MCF-7-EBP1 transfectants vs vector controls", "description": "as §1, §2"}}}
{"molecule": "B1", "values": [{"measurement": "decrease of ErbB2 protein", "setting": "AU565 cells", "result": 57, "unit": "%"}, {"measurement": "growth inhibition by the withdrawal of androgens", "setting": "LNCaP cells", "result": 60, "unit": "%"}, {"measurement": "ErbB2 protein level", "setting": "MCF-7 cells", "result": "significantly decreased"}, {"measurement": "ErbB3 protein level", "setting": "MCF-7 cells", "result": "no change"}]}
